Consider 3 molecules from patent publication US20090081786A1, “Peptide sequences for modulation of protein kinase C” (priority 2006, published 2009).

T1: annexin V (Homo sapiens, UniProt P08758)
T1 sequence (P08758 1-320): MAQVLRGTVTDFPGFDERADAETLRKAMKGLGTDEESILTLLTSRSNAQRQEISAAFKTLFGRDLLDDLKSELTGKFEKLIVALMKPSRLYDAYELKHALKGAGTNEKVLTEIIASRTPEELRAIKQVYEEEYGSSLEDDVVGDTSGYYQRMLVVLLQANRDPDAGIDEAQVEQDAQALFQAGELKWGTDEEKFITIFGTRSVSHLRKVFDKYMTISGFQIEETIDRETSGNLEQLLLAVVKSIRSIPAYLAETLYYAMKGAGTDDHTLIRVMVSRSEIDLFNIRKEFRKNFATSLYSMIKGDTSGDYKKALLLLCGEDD

B1: δ-V1: V1/C2 domain of δ-PKC (SEQ ID NO:18), used as myelin basic protein fusion (protein)
chain: MAPFLRISFNSYELGSLQAEDDASQPFCAVKMKEALTTDRGKTLVQKKPTMYPEWKSTFDAHIYEGRVIQIVLMRAAEDPMSEVTVGVSVLAERCKKNNGKAEFWLDLQPQAKVLMCVQYFLEDGDCKQSMRSEEEAMFPTMNRRGAIKQAKIHYIKNHE
modifications: left off: large carriers
B2: ε-V1: V1 region of ε-PKC (SEQ ID NO:20) (protein, listed as Homo sapiens)
chain: MVVFNGLLKIKICEAVSLKPTAWSLRHAVGPRPQTFLLDPYIALNVDDSRIGQTATKQKTNSPAWHDEFVTDVCNGRKIELAVFHDAPIGYDDFVANCTIQFEELLQNGSRHFEDWIDLEPEGKVYVIIDLSGSSGEAPKDNEE
B3: δ-PKC: full length δ-protein kinase C (SEQ ID NO:16) (protein, listed as Homo sapiens)
chain: MAPFLRISFNSYELGSLQVEDEASQPFCAVKMKEALSTERGKTLVQKKPTMYPEWKTTFDAHIYEGRVIQIVLMRAAEDPVSEVTVGVSVLAERCKKNNGKAEFWLDLQPQAKVLMCVQYFLEDGDCKQSMRSEEEAKFPTMNRRGAIKQAKIHYIKNHEFIATFFGQPTFCSVCKEFVWGLNKQGYKCRQCNAAIHKKCIDKIIGRCTGTATNSRDTIFQKERFNIDMPHRFKVYNYMSPTFCDHCGSLLWGLVKQGLKCEDCGMNVHHKCREKVANLCGINQKLLAEALNQVTQRSSRKLDTTESVGIYQGFEKKPEVSGSDILDNNGTYGKIWEGSTRCTLENFTFQKVLGKGSFGKVLLAELKGKDKYFAIKCLKKDVVLIDDDVECTMVEKRVLALAWESPFLTHLICTFQTKDHLFFVMEFLNGGDLMFHIQDKGRFELYRATFYAAEIICGLQFLHSKGIIYRDLKLDNVMLDRDGHIKIADFGMCKENIFGEGRASTFCGTPDYIAPEILQGLKYSFSVDWWSFGVLLYEMLIGQSPFHGDDEDELFESIRVDTPHYPRWITKESKDIMEKLFERDPDKRLGVTGNIRIHPFFKTINWSLLEKRKVEPPFKPKVKSPSDYSNFDPEFLNEKPQLSFSDKNLIDSMDQEAFHGFSFVNPKFEQFLDI

The experiment deals with T1, annexin V. Kind of experiment: overlay binding assay on immobilized annexin V. The conditions noted are these: immobilized annexin V on nitrocellulose, overlay 37° C. 30 min, Western blotting. The method, then:
A binding assay was performed in vitro, using an immobilized annexin V with the δ-PKC, δ-V1 (SEQ ID NO:18) (the C2 domain of δ-PKC), δ-V5 (SEQ ID NO:19), and ε-V1 (SEQ ID NO:20) peptides. These domains are recognized in the art as participating in protein-protein interactions.
10 μg of the annexin V was separated on 12% SDS-PAGE gel and transferred to nitrocellulose, and then cut into strips. The strips were incubated with blocking buffer (50 mM Tris pH 7.5, 200 mM NaCl, 3% bovine serum albumin, 0.1% PEG20). The strips were then incubated in overlay buffer (50 mM Tris pH 7.5, 200 mM NaCl, 1% PEG20, 12 mM β-mercaptoethanol) in the presence where appropriate of 30 μg crude bacterial cell lysate containing fusion proteins of myelin basic protein (MBP)-delta V1 PKC (MBP-δV1), glutathione-S-transferase-delta V5 PKC (GST-δV5), and full length sequences of δ-PKC or rat purified ε-PKC (SEQ ID NO:21) at 37° C. for 30 min. The strips where then washed with wash buffer (50 mM Tris pH 7.5, 200 mM NaCl, 0.1% PEG20, 12 mM β-mercaptoethanol), and then incubated with fixative (0.2% formaldehyde in PBS) and neutralizing solution (0.2M glycine in PBS) at room temperature 20 min each. After washing with buffer, the strips were probed with antibodies according to the overlay protein, and resulting bands were visualized using ECL Western blotting.
As for B1, the “binding to annexin V” value is listed as “bind to the annexin V”.

As for B2, the “binding to annexin V” value is listed as “did not bind to the annexin V”.

With B3, the “binding to annexin V” value is “bind to the annexin V”.
